Measurements reported in patent CN116745314A.

Target: spike glycoprotein of live SARS-CoV-2 (isolate USA-WA1/2020) (SARS-CoV-2) (UniProt P0DTC2)
Assay: cell-based or functional assay

S2D106-LS (antibody)
EC50 (live SARS-CoV-2-luc neutralisation, MOI 0.1, 6 h): 6 ng/mL | EC90 (live SARS-CoV-2-luc neutralisation, MOI 0.1, 6 h): 22 ng/mL | IC50 (live SARS-CoV-2-luc neutralisation, MOI 0.1, 6 h): 4.49 ng/mL
